Results: IntAct's records for PubMed 31515488

B1: Protein FAM13C (Homo sapiens), Q8NE31 (parent)
chain: MFSCFCFSLQDNSFSSTTVTECDEDPVSLHEDQTDCSSLRDENNKENYPDAGALVEEHAPPSWEPQQQNVEATVLVDSVLRPSMGNFKSRKPKSIFKAESGRSHGESQETEHVVSSQSECQVRAGTPAHESPQNNAFKCQETVRLQPRIDQRTAISPKDAFETRQDLNEEEAAQVHGVKDPAPASTQSVLADGTDSADPSPVHKDGQNEADSAPEDLHSVGTSRLLYHITDGDNPLLSPRCSIFSQSQRFNLDPESAPSPPSTQQFMMPRSSSRCSCGDGKEPQTITQLTKHIQSLKRKIRKFEEKFEQEKKYRPSHGDKTSNPEVLKWMNDLAKGRKQLKELKLKLSEEQGSAPKGPPRNLLCEQPTVPRENGKPEAAGPEPSSSGEETPDAALTCLKERREQLPPQEDSKVTKQDKNLIKPLYDRYRIIKQILSTPSLIPTIQEEEDSDEDRPQGSQQPSLADPASHLPVGDHLTYSNETEPVRALLPDEKKEVKPPALSMSNLHEATMPVLLDHLRETRADKKRLRKALREFEEQFFKQTGRSPQKEDRIPMADEYYEYKHIKAKLRLLEVLISKQDVAKTI
B2: Circadian locomoter output cycles protein kaput (Homo sapiens), O15516 (parent)
chain: MLFTVSCSKMSSIVDRDDSSIFDGLVEEDDKDKAKRVSRNKSEKKRRDQFNVLIKELGSMLPGNARKMDKSTVLQKSIDFLRKHKEITAQSDASEIRQDWKPTFLSNEEFTQLMLEALDGFFLAIMTDGSIIYVSESVTSLLEHLPSDLVDQSIFNFIPEGEHSEVYKILSTHLLESDSLTPEYLKSKNQLEFCCHMLRGTIDPKEPSTYEYVKFIGNFKSLNSVSSSAHNGFEGTIQRTHRPSYEDRVCFVATVRLATPQFIKEMCTVEEPNEEFTSRHSLEWKFLFLDHRAPPIIGYLPFEVLGTSGYDYYHVDDLENLAKCHEHLMQYGKGKSCYYRFLTKGQQWIWLQTHYYITYHQWNSRPEFIVCTHTVVSYAEVRAERRRELGIEESLPETAADKSQDSGSDNRINTVSLKEALERFDHSPTPSASSRSSRKSSHTAVSDPSSTPTKIPTDTSTPPRQHLPAHEKMVQRRSSFSSQSINSQSVGSSLTQPVMSQATNLPIPQGMSQFQFSAQLGAMQHLKDQLEQRTRMIEANIHRQQEELRKIQEQLQMVHGQGLQMFLQQSNPGLNFGSVQLSSGNSSNIQQLAPINMQGQVVPTNQIQSGMNTGHIGTTQHMIQQQTLQSTSTQSQQNVLSGHSQQTSLPSQTQSTLTAPLYNTMVISQPAAGSMVQIPSSMPQNSTQSAAVTTFTQDRQIRFSQGQQLVTKLVTAPVACGAVMVPSTMLMGQVVTAYPTFATQQQQSQTLSVTQQQQQQSSQEQQLTSVQQPSQAQLTQPPQQFLQTSRLLHGNPSTQLILSAAFPLQQSTFPQSHHQQHQSQQQQQLSRHRTDSLPDPSKVQPQ
B3: G-patch domain and KOW motifs-containing protein (Homo sapiens), Q92917 (parent)
chain: MADSKEGVLPLTAASTAPISFGFTRTSARRRLADSGDGAGPSPEEKDFLKTVEGRELQSVKPQEAPKELVIPLIQNGHRRQPPARPPGPSTDTGALADGVVSQAVKELIAESKKSLEERENAGVDPTLAIPMIQKGCTPSGEGADSEPRAETVPEEANYEAVPVEAYGLAMLRGMGWKPGEGIGRTFNQVVKPRVNSLRPKGLGLGANLTEAQALTPTGPSRMPRPDEEQEKDKEDQPQGLVPGGAVVVLSGPHRGLYGKVEGLDPDNVRAMVRLAVGSRVVTVSEYYLRPVSQQEFDKNTLDLRQQNGTASSRKTLWNQELYIQQDNSERKRKHLPDRQDGPAAKSEKAAPRSQHWLHRDLRVRFVDNMYKGGQYYNTKMIIEDVLSPDTCVCRTDEGRVLEGLREDMLETLVPKAEGDRVMVVLGPQTGRVGHLLSRDRARSRALVQLPRENQVVELHYDAICQYMGPSDTDDD
B4: Ankyrin repeat and BTB/POZ domain-containing protein 1 (Homo sapiens), Q969K4 (parent)
chain: MDTSDLFASCRKGDVGRVRYLLEQRDVEVNVRDKWDSTPLYYACLCGHEELVLYLLANGARCEANTFDGERCLYGALSDPIRRALRDYKQVTASCRRRDYYDDFLQRLLEQGIHSDVVFVVHGKPFRVHRCVLGARSAYFANMLDTKWKGKSVVVLRHPLINPVAFGALLQYLYTGRLDIGVEHVSDCERLAKQCQLWDLLSDLEAKCEKVSEFVASKPGTCVKVLTIEPPPADPRLREDMALLADCALPPELRGDLWELPFPCPDGFNSCPDICFRVAGCSFLCHKAFFCGRSDYFRALLDDHFRESEEPATSGGPPAVTLHGISPDVFTHVLYYMYSDHTELSPEAAYDVLSVADMYLLPGLKRLCGRSLAQMLDEDTVVGVWRVAKLFRLARLEDQCTEYMAKVIEKLVEREDFVEAVKEEAAAVAARQETDSIPLVDDIRFHVASTVQTYSAIEEAQQRLRALEDLLVSIGLDC
B5: E3 ubiquitin-protein ligase Midline-1 (Homo sapiens), O15344 (parent)
chain: METLESELTCPICLELFEDPLLLPCAHSLCFNCAHRILVSHCATNESVESITAFQCPTCRHVITLSQRGLDGLKRNVTLQNIIDRFQKASVSGPNSPSETRRERAFDANTMTSAEKVLCQFCDQDPAQDAVKTCVTCEVSYCDECLKATHPNKKPFTGHRLIEPIPDSHIRGLMCLEHEDEKVNMYCVTDDQLICALCKLVGRHRDHQVAALSERYDKLKQNLESNLTNLIKRNTELETLLAKLIQTCQHVEVNASRQEAKLTEECDLLIEIIQQRRQIIGTKIKEGKVMRLRKLAQQIANCKQCIERSASLISQAEHSLKENDHARFLQTAKNITERVSMATASSQVLIPEINLNDTFDTFALDFSREKKLLECLDYLTAPNPPTIREELCTASYDTITVHWTSDDEFSVVSYELQYTIFTGQANVVSLCNSADSWMIVPNIKQNHYTVHGLQSGTKYIFMVKAINQAGSRSSEPGKLKTNSQPFKLDPKSAHRKLKVSHDNLTVERDESSSKKSHTPERFTSQGSYGVAGNVFIDSGRHYWEVVISGSTWYAIGLAYKSAPKHEWIGKNSASWALCRCNNNWVVRHNSKEIPIEPAPHLRRVGILLDYDNGSIAFYDALNSIHLYTFDVAFAQPVCPTFTVWNKCLTIITGLPIPDHLDCTEQLP
B6: Dynein light chain 2, cytoplasmic (Homo sapiens), Q96FJ2 (parent)
chain: MSDRKAVIKNADMSEDMQQDAVDCATQAMEKYNIEKDIAAYIKKEFDKKYNPTWHCIVGRNFGSYVTHETKHFIYFYLGQVAILLFKSG
partner: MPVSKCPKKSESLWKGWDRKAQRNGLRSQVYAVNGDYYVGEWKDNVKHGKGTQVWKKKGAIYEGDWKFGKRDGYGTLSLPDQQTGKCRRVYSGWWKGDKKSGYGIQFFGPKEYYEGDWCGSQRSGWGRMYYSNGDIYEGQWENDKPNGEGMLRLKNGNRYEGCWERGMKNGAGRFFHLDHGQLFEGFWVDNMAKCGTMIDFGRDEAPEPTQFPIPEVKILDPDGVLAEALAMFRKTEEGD
B7: Zinc finger protein 165 (Homo sapiens), P49910 (parent)
chain: MATEPKKAAAQNSPEDEGLLIVKIEEEEFIHGQDTCLQRSELLKQELCRQLFRQFCYQDSPGPREALSRLRELCCQWLKPEIHTKEQILELLVLEQFLTILPGDLQAWVHEHYPESGEEAVTILEDLERGTDEAVLQVQAHEHGQEIFQKKVSPPGPALNVKLQPVETKAHFDSSEPQLLWDCDNESENSRSMPKLEIFEKIESQRIISGRISGYISEASGESQDICKSAGRVKRQWEKESGESQRLSSAQDEGFGKILTHKNTVRGEIISHDGCERRLNLNSNEFTHQKSCKHGTCDQSFKWNSDFINHQIIYAGEKNHQYGKSFKSPKLAKHAAVFSGDKTHQCNECGKAFRHSSKLARHQRIHTGERCYECNECGKSFAESSDLTRHRRIHTGERPFGCKECGRAFNLNSHLIRHQRIHTREKPYECSECGKTFRVSSHLIRHFRIHTGEKPYECSECGRAFSQSSNLSQHQRIHMRENLLM
B8: Tuftelin-interacting protein 11 (Homo sapiens), Q9UBB9 (parent)
chain: MSLSHLYRDGEGRIDDDDDERENFEITDWDLQNEFNPNRQRHWQTKEEATYGVWAERDSDDERPSFGGKRARDYSAPVNFISAGLKKGAAEEAELEDSDDEEKPVKQDDFPKDFGPRKLKTGGNFKPSQKGFAGGTKSFMDFGSWERHTKGIGQKLLQKMGYVPGRGLGKNAQGIINPIEAKQRKGKGAVGAYGSERTTQSMQDFPVVDSEEEAEEEFQKELSQWRKDPSGSKKKPKYSYKTVEELKAKGRISKKLTAPQKELSQVKVIDMTGREQKVYYSYSQISHKHNVPDDGLPLQSQQLPQSGKEAKAPGFALPELEHNLQLLIDLTEQEIIQNDRQLQYERDMVVNLFHELEKMTEVLDHEERVISNLSKVLEMVEECERRMQPDCSNPLTLDECARIFETLQDKYYEEYRMSDRVDLAVAIVYPLMKEYFKEWDPLKDCTYGTEIISKWKSLLENDQLLSHGGQDLSADAFHRLIWEVWMPFVRNIVTQWQPRNCDPMVDFLDSWVHIIPVWILDNILDQLIFPKLQKEVENWNPLTDTVPIHSWIHPWLPLMQARLEPLYSPIRSKLSSALQKWHPSDSSAKLILQPWKDVFTPGSWEAFMVKNIVPKLGMCLGELVINPHQQHMDAFYWVIDWEGMISVSSLVGLLEKHFFPKWLQVLCSWLSNSPNYEEITKWYLGWKSMFSDQVLAHPSVKDKFNEALDIMNRAVSSNVGAYMQPGARENIAYLTHTERRKDFQYEAMQERREAENMAQRGIGVAASSVPMNFKDLIETKAEEHNIVFMPVIGKRHEGKQLYTFGRIVIYIDRGVVFVQGEKTWVPTSLQSLIDMAK
partner: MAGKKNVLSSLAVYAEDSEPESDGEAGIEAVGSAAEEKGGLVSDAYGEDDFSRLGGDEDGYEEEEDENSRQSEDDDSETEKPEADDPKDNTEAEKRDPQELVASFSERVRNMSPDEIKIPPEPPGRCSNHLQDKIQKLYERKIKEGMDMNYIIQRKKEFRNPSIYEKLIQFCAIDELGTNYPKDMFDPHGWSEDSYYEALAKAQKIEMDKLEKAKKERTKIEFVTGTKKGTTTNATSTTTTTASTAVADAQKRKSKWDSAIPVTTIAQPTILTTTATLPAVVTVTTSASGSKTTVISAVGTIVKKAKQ

Variants of: B1
Settings: with kif2a_human KIF2A

Row | Variant | effect of a mutation on the interaction
1 | K97R | with no effect

Variants of: B1
Settings: with tfp11_human TFIP11, Q9UBB9

Row | Variant | effect of a mutation on the interaction
2 | P147S | with no effect

Variants of: B2
Settings: with bmal1_human BMAL1, O00327
bmal1_human BMAL1, O00327, sequence (O00327 whole entry): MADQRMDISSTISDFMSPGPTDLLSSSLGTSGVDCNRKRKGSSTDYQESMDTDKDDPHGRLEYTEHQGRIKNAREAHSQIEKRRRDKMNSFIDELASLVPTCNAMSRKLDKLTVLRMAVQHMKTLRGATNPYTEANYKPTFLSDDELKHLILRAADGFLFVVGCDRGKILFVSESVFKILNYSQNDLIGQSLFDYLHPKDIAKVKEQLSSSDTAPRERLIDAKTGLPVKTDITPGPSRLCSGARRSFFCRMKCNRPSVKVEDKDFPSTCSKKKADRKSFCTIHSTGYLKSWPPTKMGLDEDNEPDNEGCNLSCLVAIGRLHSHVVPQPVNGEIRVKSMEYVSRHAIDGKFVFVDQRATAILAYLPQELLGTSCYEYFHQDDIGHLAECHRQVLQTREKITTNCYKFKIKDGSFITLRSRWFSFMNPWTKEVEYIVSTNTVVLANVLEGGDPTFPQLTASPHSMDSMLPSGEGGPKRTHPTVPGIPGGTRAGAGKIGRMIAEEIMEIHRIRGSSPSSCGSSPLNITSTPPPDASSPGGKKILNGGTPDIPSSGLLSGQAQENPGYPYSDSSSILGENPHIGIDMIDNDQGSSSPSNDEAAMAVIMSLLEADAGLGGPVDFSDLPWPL

Row | Variant | effect of a mutation on the interaction
3 | L395I | with no effect
4 | G235E | with no effect

Variants of: B3
Settings: with tri23_human TRIM23, P36406
tri23_human TRIM23, P36406, sequence (P36406 whole entry): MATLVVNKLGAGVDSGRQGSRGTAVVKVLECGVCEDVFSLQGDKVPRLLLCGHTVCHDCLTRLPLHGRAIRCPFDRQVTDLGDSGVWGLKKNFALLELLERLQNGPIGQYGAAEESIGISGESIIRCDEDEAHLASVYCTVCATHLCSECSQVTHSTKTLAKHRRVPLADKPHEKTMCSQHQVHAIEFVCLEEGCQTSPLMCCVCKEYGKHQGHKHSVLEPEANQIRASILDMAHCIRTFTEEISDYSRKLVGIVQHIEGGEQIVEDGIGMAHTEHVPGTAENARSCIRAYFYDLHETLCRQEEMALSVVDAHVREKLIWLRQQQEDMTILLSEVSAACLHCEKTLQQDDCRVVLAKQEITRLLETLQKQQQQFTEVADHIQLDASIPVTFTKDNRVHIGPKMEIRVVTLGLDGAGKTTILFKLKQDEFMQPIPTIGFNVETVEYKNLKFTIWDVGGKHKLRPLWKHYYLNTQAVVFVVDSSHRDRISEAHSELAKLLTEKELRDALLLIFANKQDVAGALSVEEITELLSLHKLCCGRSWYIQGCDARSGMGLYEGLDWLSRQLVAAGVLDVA

Row | Variant | effect of a mutation on the interaction
5 | V393A | with no effect
6 | A129T | with no effect

Variants of: B3
Settings: with traf2_human TRAF2, Q12933
traf2_human TRAF2, Q12933, sequence (Q12933 whole entry): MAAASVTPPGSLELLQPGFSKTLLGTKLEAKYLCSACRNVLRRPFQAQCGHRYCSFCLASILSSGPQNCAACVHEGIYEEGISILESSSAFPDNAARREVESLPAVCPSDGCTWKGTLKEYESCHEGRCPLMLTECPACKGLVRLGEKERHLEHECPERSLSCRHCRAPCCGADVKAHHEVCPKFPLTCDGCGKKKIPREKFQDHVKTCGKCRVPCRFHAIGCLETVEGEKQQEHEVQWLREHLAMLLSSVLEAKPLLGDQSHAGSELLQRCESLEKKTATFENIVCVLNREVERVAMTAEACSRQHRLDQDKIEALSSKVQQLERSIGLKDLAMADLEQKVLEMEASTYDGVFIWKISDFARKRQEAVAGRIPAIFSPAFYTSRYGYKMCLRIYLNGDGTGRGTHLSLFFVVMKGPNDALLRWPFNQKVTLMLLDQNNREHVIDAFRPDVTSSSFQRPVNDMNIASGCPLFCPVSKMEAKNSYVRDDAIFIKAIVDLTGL

Row | Variant | effect of a mutation on the interaction
7 | V393A | with no effect
8 | A129T | with no effect

Variants of: B4
Settings: with ef1d_human EEF1D

Row | Variant | effect of a mutation on the interaction
9 | R386H | with no effect

Variants of: B4
Settings: with ef1a2_human EEF1A2, Q05639

Row | Variant | effect of a mutation on the interaction
10 | R386H | with no effect

Variants of: B4
Settings: with cul3_human CUL3, Q13618

Row | Variant | effect of a mutation on the interaction
11 | R386H | with no effect

Variants of: B5
Settings: with meox1_human MEOX1, P50221
meox1_human MEOX1, P50221, sequence (P50221 whole entry): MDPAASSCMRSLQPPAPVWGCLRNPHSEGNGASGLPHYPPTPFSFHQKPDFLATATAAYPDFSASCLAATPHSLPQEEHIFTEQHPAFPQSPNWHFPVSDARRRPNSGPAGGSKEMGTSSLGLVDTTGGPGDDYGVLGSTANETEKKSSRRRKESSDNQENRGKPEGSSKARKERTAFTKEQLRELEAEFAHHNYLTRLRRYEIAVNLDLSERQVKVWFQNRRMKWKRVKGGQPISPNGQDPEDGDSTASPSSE

Row | Variant | effect of a mutation on the interaction
12 | D84N | with no effect

Variants of: B5
Settings: with echp_human EHHADH

Row | Variant | effect of a mutation on the interaction
13 | D84N | with no effect

Variants of: B5
Settings: with ub2d3_human UBE2D3, P61077
ub2d3_human UBE2D3, P61077, sequence (P61077 whole entry): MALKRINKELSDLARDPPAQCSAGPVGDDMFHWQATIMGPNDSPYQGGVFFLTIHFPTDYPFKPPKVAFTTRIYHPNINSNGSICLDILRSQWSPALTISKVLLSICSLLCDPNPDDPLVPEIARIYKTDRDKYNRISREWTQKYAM

Row | Variant | effect of a mutation on the interaction
14 | D84N | with no effect

Variants of: B5
Settings: with ub2e2_human UBE2E2, Q96LR5
ub2e2_human UBE2E2, Q96LR5, sequence (Q96LR5 whole entry): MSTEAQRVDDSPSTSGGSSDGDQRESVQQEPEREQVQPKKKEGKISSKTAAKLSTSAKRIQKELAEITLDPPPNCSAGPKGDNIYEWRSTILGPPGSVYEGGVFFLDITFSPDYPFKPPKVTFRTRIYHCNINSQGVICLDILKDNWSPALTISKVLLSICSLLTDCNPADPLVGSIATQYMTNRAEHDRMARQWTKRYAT

Row | Variant | effect of a mutation on the interaction
15 | D84N | with no effect

Variants of: B6
Settings: with morn3_human MORN3, Q6PF18

Row | Variant | effect of a mutation on the interaction
16 | N33S | with no effect

Variants of: B7
Settings: with kat7_human KAT7, O95251
kat7_human KAT7, O95251, sequence (O95251 whole entry): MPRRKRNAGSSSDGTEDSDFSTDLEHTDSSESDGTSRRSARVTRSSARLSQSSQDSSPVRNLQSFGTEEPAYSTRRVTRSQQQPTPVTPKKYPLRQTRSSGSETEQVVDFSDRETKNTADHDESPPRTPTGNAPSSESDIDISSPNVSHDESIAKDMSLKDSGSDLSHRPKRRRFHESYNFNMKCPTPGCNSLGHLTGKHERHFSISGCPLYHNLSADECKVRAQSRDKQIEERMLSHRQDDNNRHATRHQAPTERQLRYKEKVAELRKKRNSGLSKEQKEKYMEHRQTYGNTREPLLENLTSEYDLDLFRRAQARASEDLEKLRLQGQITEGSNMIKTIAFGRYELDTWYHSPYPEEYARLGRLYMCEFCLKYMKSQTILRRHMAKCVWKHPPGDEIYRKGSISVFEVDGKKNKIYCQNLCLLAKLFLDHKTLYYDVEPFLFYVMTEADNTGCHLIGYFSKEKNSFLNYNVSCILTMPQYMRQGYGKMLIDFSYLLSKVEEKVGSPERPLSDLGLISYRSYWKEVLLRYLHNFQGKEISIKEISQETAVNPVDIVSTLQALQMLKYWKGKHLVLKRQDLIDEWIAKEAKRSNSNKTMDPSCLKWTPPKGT

Row | Variant | effect of a mutation on the interaction
17 | N347Y | with no effect
18 | R69C | with no effect

Variants of: B7
Settings: with pdli7_human PDLIM7, Q9NR12
pdli7_human PDLIM7, Q9NR12, sequence (Q9NR12 whole entry): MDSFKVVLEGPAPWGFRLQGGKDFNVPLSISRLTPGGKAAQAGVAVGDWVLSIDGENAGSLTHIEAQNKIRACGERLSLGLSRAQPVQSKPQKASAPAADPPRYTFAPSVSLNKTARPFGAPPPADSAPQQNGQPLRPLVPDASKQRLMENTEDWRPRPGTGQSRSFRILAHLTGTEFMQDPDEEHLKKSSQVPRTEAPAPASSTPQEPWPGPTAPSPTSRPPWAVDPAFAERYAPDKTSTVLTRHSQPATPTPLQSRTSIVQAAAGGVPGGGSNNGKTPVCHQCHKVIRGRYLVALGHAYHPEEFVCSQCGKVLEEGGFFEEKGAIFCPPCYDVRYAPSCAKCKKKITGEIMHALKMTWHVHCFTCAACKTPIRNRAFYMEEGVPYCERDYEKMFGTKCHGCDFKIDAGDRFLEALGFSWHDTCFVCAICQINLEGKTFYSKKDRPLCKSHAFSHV

Row | Variant | effect of a mutation on the interaction
19 | N347Y | with no effect
20 | R69C | with no effect

Variants of: B7
Settings: with trim1_human MID2, Q9UJV3
trim1_human MID2, Q9UJV3, sequence (Q9UJV3 whole entry): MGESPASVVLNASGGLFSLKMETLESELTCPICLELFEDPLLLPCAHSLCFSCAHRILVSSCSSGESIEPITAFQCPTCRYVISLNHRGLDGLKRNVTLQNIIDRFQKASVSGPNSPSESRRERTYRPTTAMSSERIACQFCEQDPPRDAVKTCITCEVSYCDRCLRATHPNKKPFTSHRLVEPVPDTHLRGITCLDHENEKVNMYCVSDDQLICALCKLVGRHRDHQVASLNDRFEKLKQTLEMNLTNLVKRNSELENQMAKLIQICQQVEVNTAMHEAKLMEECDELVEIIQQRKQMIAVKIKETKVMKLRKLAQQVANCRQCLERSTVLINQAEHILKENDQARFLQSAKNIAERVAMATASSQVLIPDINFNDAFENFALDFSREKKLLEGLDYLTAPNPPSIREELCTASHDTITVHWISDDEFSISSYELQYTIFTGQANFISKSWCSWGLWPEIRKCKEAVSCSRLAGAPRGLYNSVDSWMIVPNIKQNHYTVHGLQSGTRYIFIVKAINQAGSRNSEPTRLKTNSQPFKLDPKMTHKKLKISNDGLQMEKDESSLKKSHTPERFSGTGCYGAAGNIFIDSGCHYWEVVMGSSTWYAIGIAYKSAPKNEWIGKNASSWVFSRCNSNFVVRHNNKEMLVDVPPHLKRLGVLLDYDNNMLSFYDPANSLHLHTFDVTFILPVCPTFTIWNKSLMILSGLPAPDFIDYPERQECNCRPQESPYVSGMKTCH

Row | Variant | effect of a mutation on the interaction
21 | N347Y | with no effect
22 | R69C | with no effect

Variants of: B7
Settings: with zn446_human ZNF446, Q9NWS9
zn446_human ZNF446, Q9NWS9, sequence (Q9NWS9 whole entry): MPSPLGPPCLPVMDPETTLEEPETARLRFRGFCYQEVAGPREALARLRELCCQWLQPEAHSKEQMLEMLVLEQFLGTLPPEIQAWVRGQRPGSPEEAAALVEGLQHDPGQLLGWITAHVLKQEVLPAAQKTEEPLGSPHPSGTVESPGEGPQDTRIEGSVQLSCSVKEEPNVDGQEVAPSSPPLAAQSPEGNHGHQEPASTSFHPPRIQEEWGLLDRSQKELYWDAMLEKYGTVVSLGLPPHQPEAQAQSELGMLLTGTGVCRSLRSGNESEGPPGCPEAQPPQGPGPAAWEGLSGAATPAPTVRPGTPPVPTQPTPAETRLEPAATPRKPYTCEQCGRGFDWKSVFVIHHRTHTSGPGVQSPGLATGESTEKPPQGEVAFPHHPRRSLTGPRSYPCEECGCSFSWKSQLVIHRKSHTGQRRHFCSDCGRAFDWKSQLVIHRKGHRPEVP

Row | Variant | effect of a mutation on the interaction
23 | N347Y | with no effect
24 | R69C | with no effect

Variants of: B8
Settings: with SAP30BP

Row | Variant | effect of a mutation on the interaction
25 | R8Q | with no effect
